Target: T1, Human CD19 (human, UniProt P15391 20-556)
T1 construct: Endogenous CD19 on the CD19+ cell lines Jeko (JeKo-1), Nalm-6 and Ly7; also called B-lymphocyte antigen CD19; B4
T1 sequence: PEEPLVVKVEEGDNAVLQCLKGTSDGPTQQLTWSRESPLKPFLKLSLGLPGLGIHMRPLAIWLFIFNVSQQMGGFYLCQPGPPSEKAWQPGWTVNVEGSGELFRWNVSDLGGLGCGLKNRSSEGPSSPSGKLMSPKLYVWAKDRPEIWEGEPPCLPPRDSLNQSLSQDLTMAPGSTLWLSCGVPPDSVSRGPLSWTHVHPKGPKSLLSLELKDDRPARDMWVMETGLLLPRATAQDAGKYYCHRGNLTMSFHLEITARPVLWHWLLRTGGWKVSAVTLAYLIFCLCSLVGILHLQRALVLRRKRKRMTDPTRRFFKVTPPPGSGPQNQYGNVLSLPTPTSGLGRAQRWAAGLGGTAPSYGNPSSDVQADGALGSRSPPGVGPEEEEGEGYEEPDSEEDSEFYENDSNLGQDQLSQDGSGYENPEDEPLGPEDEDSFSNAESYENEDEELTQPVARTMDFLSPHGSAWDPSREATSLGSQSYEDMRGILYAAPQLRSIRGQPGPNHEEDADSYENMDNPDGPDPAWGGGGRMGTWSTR
Assay: Pre-incubation of CD19+ Nalm-6 or Jeko cells, then flow cytometry with FMC63 as competitor
Procedure: FIG. 2: Clone FMC63 (CD19 binding domain in CART19) and tafasitamab compete for CD19 binding. After 4 hours of treatment of Jeko cells with 2 or 0.5 mg/mL of tafasitamab, flow cytometry using the FMC63 anti-CD19 antibody was performed.
It was studied, whether the observed CART19 activity may be influenced by tafasitamab in case of a direct CD19 binding competition between tafasitamab and the CAR. To first test for such binding competition, the CD19+ cell lines Nalm-6 or Jeko were incubated with 2 or 0.5 mg/mL tafasitamab, to saturate the receptors. […] To investigate for any potential impact of such binding competition on CART19 cell effector functions, tafasitamab was incubated with target cells (CD19+ cell lines Jeko, Ly7 or Nalm-6) at increasing concentrations and then CART19 cells were added at different effector: target ratios (0.1:1 to 10:1), without other effector cells to the cell culture.

B1: tafasitamab (antibody, human IgG1, kappa, V domains shown)
VH: EVQLVESGGGLVKPGGSLKLSCAASGYTFTSYVMHWVRQAPGKGLEWIGYINPYNDGTKYNEKFQGRVTISSDKSISTAYMELSSLRSEDTAMYYCARGTYYYGTRVFDYWGQGTLVTVSS
VL: DIVMTQSPATLSLSPGERATLSCRSSKSLQNVNGNTYLYWFQQKPGQSPQLLIYRMSNLNSGVPDRFSGSGSGTEFTLTISSLEPEDFAVYYCMQHLEYPITFGAGTKLEIKR
notes: Fc-enhanced, humanized monoclonal anti-CD19 antibody; also called MOR00208; MOR208
Q: Does B1 bind?
A: Result: binds

From patent publication US20240156863A1 (MorphoSys, published 2024)
